# Source: PMC8387365 (Nature chemical biology, 2021)
# T1: Kif4A-GFP (UniProt O95239 1-1232)
# T1 sequence: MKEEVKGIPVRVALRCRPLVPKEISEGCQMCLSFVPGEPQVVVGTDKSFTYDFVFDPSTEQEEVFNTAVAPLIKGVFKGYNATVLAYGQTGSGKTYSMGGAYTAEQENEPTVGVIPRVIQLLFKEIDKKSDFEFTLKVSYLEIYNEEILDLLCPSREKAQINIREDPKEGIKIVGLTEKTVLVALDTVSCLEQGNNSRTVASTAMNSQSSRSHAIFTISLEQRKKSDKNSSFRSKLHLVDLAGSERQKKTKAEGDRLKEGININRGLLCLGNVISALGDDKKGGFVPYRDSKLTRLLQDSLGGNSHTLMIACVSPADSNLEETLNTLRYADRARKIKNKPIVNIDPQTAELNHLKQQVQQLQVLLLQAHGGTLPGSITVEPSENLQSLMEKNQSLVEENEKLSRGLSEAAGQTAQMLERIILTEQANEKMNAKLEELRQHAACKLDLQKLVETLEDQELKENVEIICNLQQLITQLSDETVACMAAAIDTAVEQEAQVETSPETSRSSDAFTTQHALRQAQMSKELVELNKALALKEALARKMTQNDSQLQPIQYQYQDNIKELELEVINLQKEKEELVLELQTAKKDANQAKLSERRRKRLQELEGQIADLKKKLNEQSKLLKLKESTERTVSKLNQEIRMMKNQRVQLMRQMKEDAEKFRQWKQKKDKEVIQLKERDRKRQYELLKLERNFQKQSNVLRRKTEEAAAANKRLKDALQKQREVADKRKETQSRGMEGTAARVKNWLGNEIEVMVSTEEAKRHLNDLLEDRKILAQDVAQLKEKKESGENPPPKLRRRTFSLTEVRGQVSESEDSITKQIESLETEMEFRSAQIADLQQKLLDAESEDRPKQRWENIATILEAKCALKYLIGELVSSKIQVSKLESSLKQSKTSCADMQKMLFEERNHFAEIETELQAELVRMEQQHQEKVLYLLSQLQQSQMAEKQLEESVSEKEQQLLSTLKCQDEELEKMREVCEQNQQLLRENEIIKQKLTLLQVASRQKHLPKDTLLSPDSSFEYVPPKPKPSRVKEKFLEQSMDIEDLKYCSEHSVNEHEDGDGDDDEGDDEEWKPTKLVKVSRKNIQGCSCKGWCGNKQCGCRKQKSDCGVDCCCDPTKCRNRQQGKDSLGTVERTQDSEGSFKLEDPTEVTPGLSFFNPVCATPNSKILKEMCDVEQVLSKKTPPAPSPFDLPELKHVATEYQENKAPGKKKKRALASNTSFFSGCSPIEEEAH
# Target: T1, Kif4A-GFP
# Assay: BLI
binder,measurement,value
full-length PRC1 (Protein Regulator of Cytokinesis-1) (natural protein) MRRSEVLAEESIVCLQKALNHLREIWELIGIPEDQRLQRTEVVKKHIKELLDMMIAEEESLKERLIKSISVCQKELNTLCSELHVEPFQEEGETTILQLEKDLRTQVELMRKQKKERKQELKLLQEQDQELCEILCMPHYDIDSASVPSLEELNQFRQHVTTLRETKASRREEFVSIKRQIILCMEALDHTPDTSFERDVVCEDEDAFCLSLENIATLQKLLRQLEMQKSQNEAVCEGLRTQIRELWDRLQIPEEEREAVATIMSGSKAKVRKALQLEVDRLEELKMQNMKKVIEAIRVELVQYWDQCFYSQEQRQAFAPFCAEDYTESLLQLHDAEIVRLKNYYEVHKELFEGVQKWEETWRLFLEFERKASDPNRFTNRGGNLLKEEKQRAKLQKMLPKLEEELKARIELWEQEHSKAFMVNGQKFMEYVAEQWEMHRLEKERAKQERQLKNKKQTETEMLYGSAPRTPSKRRGLAPNTPGKARKLNTTTMSNATANSSIRPIFGGTVYHSPVSRLPPSGSKPVAASTCSGKKTPRTGRHGANKENLELNGSILSGGYPGSAPLQRNFSINSVASTYSEFAKDPSLSDSSTVGLQRELSKASKSDATSGILNSTNIQS,Kd,0.0125 ± 0.00209 µM
